The values below come from patent publication US20180155451A1 (published 2018).

This test concerns the target T1, FcγRIa (human, UniProt P12314 16-292).
T1 construct: extracellular domain; also called FcgRI; CD64
The experiment in a line: SPR; vs GpH7-B3/GpL16-k0=100.

T1 sequence (P12314 16-292): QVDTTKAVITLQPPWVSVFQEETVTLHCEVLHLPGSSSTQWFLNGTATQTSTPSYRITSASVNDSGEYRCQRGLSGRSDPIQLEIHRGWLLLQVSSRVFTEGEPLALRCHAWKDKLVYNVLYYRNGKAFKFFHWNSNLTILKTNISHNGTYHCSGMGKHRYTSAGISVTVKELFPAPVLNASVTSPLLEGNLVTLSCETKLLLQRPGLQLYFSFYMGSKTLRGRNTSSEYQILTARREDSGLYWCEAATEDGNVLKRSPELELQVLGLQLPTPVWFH

B1: GpH7-B3 variant A327_06M/GpL16-k0 (antibody, human IgG1, kappa)
heavy: not shown
light: DIVMTQSPLSLPVTPGEPASISCQASESLVHSNRNTYLHWYLQKPGQSPQLLIYKVSNRFSGVPDRFSGSGSGTDFTLKISRVEAEDVGVYYCSQNTHVPPTFGQGTKVEIERTVAAPSVFIFPPSDEQLKSGTASVVCLLNNFYPREAKVQWKVDNALQSGNSQESVTEQDSKDSTYSLSSTLTLSKADYEKHKVYACEVTHQGLSSPVTKSFNRGEC
notes: homodimerized; also called Ho Ab A327_06M
Consider B1, for which the Ho/Con_1a was 93.1 % of control.

B2: GpH7-B3 variant E269_03V/GpL16-k0 (antibody, human IgG1, kappa)
heavy: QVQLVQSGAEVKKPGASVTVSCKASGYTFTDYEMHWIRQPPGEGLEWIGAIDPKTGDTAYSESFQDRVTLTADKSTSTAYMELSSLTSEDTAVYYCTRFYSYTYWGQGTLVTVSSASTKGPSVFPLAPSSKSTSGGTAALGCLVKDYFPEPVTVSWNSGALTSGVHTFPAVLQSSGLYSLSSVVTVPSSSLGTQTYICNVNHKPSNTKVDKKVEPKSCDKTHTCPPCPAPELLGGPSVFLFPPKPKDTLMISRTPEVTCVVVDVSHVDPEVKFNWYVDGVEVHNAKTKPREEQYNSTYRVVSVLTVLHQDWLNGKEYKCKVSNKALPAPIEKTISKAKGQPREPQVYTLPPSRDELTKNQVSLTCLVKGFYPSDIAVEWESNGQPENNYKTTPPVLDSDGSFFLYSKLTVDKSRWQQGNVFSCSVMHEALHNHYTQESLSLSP
light: DIVMTQSPLSLPVTPGEPASISCQASESLVHSNRNTYLHWYLQKPGQSPQLLIYKVSNRFSGVPDRFSGSGSGTDFTLKISRVEAEDVGVYYCSQNTHVPPTFGQGTKVEIERTVAAPSVFIFPPSDEQLKSGTASVVCLLNNFYPREAKVQWKVDNALQSGNSQESVTEQDSKDSTYSLSSTLTLSKADYEKHKVYACEVTHQGLSSPVTKSFNRGEC
notes: homodimerized; also called Ho Ab E269_03V
With B2, the Ho/Con_1a was 95.4 % of control.

B3: GpH7-B3 variant A327_07I/GpL16-k0 (antibody, human IgG1, kappa)
heavy: not shown
light: DIVMTQSPLSLPVTPGEPASISCQASESLVHSNRNTYLHWYLQKPGQSPQLLIYKVSNRFSGVPDRFSGSGSGTDFTLKISRVEAEDVGVYYCSQNTHVPPTFGQGTKVEIERTVAAPSVFIFPPSDEQLKSGTASVVCLLNNFYPREAKVQWKVDNALQSGNSQESVTEQDSKDSTYSLSSTLTLSKADYEKHKVYACEVTHQGLSSPVTKSFNRGEC
notes: homodimerized; also called Ho Ab A327_07I
Regarding B3, the Ho/Con_1a was 95.5 % of control.

B4: GpH7-B3 variant A330_08L/GpL16-k0 (antibody, human IgG1, kappa)
heavy: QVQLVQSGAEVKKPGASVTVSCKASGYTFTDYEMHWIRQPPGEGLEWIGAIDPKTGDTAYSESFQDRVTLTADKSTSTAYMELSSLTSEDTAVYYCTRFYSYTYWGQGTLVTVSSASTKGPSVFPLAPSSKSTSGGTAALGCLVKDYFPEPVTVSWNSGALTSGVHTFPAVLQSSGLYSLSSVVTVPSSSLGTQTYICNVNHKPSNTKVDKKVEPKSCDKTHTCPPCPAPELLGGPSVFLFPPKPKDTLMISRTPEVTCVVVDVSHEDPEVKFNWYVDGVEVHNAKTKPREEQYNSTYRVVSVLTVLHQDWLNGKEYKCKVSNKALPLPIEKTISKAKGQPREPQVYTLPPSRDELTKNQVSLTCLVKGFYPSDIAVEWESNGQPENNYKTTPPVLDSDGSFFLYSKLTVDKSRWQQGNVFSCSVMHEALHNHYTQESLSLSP
light: DIVMTQSPLSLPVTPGEPASISCQASESLVHSNRNTYLHWYLQKPGQSPQLLIYKVSNRFSGVPDRFSGSGSGTDFTLKISRVEAEDVGVYYCSQNTHVPPTFGQGTKVEIERTVAAPSVFIFPPSDEQLKSGTASVVCLLNNFYPREAKVQWKVDNALQSGNSQESVTEQDSKDSTYSLSSTLTLSKADYEKHKVYACEVTHQGLSSPVTKSFNRGEC
notes: homodimerized; also called Ho Ab A330_08L; GpH7-B3-20-08L/GpL16-k0
For B4, the Ho/Con_1a is 106 % of control.

B5: GpH7-B3 variant A330_11K/GpL16-k0 (antibody, human IgG1, kappa)
heavy: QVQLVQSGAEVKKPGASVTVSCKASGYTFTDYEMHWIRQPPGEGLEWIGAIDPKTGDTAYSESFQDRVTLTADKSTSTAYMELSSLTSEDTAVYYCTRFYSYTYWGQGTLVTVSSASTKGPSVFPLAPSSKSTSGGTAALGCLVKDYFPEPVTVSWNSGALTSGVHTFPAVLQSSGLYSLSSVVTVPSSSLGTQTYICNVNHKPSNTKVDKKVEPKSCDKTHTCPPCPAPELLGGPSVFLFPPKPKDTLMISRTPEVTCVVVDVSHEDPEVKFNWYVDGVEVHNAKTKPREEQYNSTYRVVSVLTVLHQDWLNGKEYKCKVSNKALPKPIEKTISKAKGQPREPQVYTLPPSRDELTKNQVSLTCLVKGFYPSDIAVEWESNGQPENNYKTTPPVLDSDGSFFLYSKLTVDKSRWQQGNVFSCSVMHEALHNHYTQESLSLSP
light: DIVMTQSPLSLPVTPGEPASISCQASESLVHSNRNTYLHWYLQKPGQSPQLLIYKVSNRFSGVPDRFSGSGSGTDFTLKISRVEAEDVGVYYCSQNTHVPPTFGQGTKVEIERTVAAPSVFIFPPSDEQLKSGTASVVCLLNNFYPREAKVQWKVDNALQSGNSQESVTEQDSKDSTYSLSSTLTLSKADYEKHKVYACEVTHQGLSSPVTKSFNRGEC
notes: homodimerized; also called Ho Ab A330_11K
B5: the Ho/Con_1a was 94.1 % of control.

B6: GpH7-B3 variant A330_09D/GpL16-k0 (antibody, human IgG1, kappa)
heavy: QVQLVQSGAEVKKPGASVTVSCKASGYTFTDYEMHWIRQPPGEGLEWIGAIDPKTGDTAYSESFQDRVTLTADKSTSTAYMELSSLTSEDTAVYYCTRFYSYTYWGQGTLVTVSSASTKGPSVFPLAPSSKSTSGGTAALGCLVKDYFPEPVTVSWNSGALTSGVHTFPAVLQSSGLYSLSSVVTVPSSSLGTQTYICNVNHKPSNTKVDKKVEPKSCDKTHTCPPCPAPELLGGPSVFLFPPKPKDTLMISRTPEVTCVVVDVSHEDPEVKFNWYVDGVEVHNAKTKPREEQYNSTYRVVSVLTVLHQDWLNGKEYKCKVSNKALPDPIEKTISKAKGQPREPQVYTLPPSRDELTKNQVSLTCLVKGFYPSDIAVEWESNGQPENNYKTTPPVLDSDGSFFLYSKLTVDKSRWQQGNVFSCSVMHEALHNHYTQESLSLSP
light: DIVMTQSPLSLPVTPGEPASISCQASESLVHSNRNTYLHWYLQKPGQSPQLLIYKVSNRFSGVPDRFSGSGSGTDFTLKISRVEAEDVGVYYCSQNTHVPPTFGQGTKVEIERTVAAPSVFIFPPSDEQLKSGTASVVCLLNNFYPREAKVQWKVDNALQSGNSQESVTEQDSKDSTYSLSSTLTLSKADYEKHKVYACEVTHQGLSSPVTKSFNRGEC
notes: homodimerized; also called Ho Ab A330_09D
Take B6: the Ho/Con_1a was 108 % of control.

B7: GpH7-B3 variant A327_13S/GpL16-k0 (antibody, human IgG1, kappa)
heavy: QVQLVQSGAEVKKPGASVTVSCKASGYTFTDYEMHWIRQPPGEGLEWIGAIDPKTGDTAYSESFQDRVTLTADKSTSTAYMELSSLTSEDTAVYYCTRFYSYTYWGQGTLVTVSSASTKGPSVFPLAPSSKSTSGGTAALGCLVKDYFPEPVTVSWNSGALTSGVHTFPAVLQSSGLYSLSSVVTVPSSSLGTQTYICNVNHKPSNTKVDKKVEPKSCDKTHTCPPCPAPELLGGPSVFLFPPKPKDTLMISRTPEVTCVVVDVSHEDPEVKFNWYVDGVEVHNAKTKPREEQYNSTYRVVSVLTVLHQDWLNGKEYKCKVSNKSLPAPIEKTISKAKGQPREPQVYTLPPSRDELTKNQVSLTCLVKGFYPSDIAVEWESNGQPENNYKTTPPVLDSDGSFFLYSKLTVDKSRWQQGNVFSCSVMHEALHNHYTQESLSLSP
light: DIVMTQSPLSLPVTPGEPASISCQASESLVHSNRNTYLHWYLQKPGQSPQLLIYKVSNRFSGVPDRFSGSGSGTDFTLKISRVEAEDVGVYYCSQNTHVPPTFGQGTKVEIERTVAAPSVFIFPPSDEQLKSGTASVVCLLNNFYPREAKVQWKVDNALQSGNSQESVTEQDSKDSTYSLSSTLTLSKADYEKHKVYACEVTHQGLSSPVTKSFNRGEC
notes: homodimerized; also called Ho Ab A327_13S
As to B7, the Ho/Con_1a was 86.1 % of control.

B8: GpH7-B3 variant E269_05P/GpL16-k0 (antibody, human IgG1, kappa)
heavy: not shown
light: DIVMTQSPLSLPVTPGEPASISCQASESLVHSNRNTYLHWYLQKPGQSPQLLIYKVSNRFSGVPDRFSGSGSGTDFTLKISRVEAEDVGVYYCSQNTHVPPTFGQGTKVEIERTVAAPSVFIFPPSDEQLKSGTASVVCLLNNFYPREAKVQWKVDNALQSGNSQESVTEQDSKDSTYSLSSTLTLSKADYEKHKVYACEVTHQGLSSPVTKSFNRGEC
notes: homodimerized; also called Ho Ab E269_05P
As for B8, the Ho/Con_1a was 95.7 % of control.

B9: GpH7-B3 variant A327_10E/GpL16-k0 (antibody, human IgG1, kappa)
heavy: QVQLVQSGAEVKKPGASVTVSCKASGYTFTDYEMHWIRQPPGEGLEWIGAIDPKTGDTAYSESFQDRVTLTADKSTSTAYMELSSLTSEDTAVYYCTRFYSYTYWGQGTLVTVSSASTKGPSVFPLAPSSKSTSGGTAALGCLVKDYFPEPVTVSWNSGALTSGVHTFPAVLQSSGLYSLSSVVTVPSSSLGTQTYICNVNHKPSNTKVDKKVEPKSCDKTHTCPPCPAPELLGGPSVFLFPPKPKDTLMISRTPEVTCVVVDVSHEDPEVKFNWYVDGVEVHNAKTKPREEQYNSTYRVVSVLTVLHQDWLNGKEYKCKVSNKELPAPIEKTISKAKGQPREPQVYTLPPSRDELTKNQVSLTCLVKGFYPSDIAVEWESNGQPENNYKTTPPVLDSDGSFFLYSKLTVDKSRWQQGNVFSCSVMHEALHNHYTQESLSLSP
light: DIVMTQSPLSLPVTPGEPASISCQASESLVHSNRNTYLHWYLQKPGQSPQLLIYKVSNRFSGVPDRFSGSGSGTDFTLKISRVEAEDVGVYYCSQNTHVPPTFGQGTKVEIERTVAAPSVFIFPPSDEQLKSGTASVVCLLNNFYPREAKVQWKVDNALQSGNSQESVTEQDSKDSTYSLSSTLTLSKADYEKHKVYACEVTHQGLSSPVTKSFNRGEC
notes: homodimerized; also called Ho Ab A327_10E
As to B9, the Ho/Con_1a is 98.8 % of control.

B10: GpH7-B3 variant E269_07I/GpL16-k0 (antibody, human IgG1, kappa)
heavy: not shown
light: DIVMTQSPLSLPVTPGEPASISCQASESLVHSNRNTYLHWYLQKPGQSPQLLIYKVSNRFSGVPDRFSGSGSGTDFTLKISRVEAEDVGVYYCSQNTHVPPTFGQGTKVEIERTVAAPSVFIFPPSDEQLKSGTASVVCLLNNFYPREAKVQWKVDNALQSGNSQESVTEQDSKDSTYSLSSTLTLSKADYEKHKVYACEVTHQGLSSPVTKSFNRGEC
notes: homodimerized; also called Ho Ab E269_07I
Take B10: the Ho/Con_1a is 97.1 % of control.

B11: GpH7-B3 variant E269_06M/GpL16-k0 (antibody, human IgG1, kappa)
heavy: not shown
light: DIVMTQSPLSLPVTPGEPASISCQASESLVHSNRNTYLHWYLQKPGQSPQLLIYKVSNRFSGVPDRFSGSGSGTDFTLKISRVEAEDVGVYYCSQNTHVPPTFGQGTKVEIERTVAAPSVFIFPPSDEQLKSGTASVVCLLNNFYPREAKVQWKVDNALQSGNSQESVTEQDSKDSTYSLSSTLTLSKADYEKHKVYACEVTHQGLSSPVTKSFNRGEC
notes: homodimerized; also called Ho Ab E269_06M
Regarding B11, the Ho/Con_1a is 101 % of control.

B12: GpH7-B3 variant A330_16H/GpL16-k0 (antibody, human IgG1, kappa)
heavy: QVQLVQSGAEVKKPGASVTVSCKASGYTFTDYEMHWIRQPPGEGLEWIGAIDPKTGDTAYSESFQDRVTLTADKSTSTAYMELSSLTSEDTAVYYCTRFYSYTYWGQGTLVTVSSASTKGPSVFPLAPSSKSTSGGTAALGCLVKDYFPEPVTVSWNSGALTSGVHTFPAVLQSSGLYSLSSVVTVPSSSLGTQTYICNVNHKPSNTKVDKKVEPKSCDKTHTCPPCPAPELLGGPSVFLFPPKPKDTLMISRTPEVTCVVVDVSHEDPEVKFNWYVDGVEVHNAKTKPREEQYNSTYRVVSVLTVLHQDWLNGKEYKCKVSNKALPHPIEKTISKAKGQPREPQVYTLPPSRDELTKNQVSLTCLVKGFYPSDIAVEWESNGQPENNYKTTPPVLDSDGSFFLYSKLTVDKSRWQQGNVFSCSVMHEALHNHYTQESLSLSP
light: DIVMTQSPLSLPVTPGEPASISCQASESLVHSNRNTYLHWYLQKPGQSPQLLIYKVSNRFSGVPDRFSGSGSGTDFTLKISRVEAEDVGVYYCSQNTHVPPTFGQGTKVEIERTVAAPSVFIFPPSDEQLKSGTASVVCLLNNFYPREAKVQWKVDNALQSGNSQESVTEQDSKDSTYSLSSTLTLSKADYEKHKVYACEVTHQGLSSPVTKSFNRGEC
notes: homodimerized; also called Ho Ab A330_16H
Turning to B12, the Ho/Con_1a is 104 % of control.

B13: GpH7-B3 variant E269_09D/GpL16-k0 (antibody, human IgG1, kappa)
heavy: not shown
light: DIVMTQSPLSLPVTPGEPASISCQASESLVHSNRNTYLHWYLQKPGQSPQLLIYKVSNRFSGVPDRFSGSGSGTDFTLKISRVEAEDVGVYYCSQNTHVPPTFGQGTKVEIERTVAAPSVFIFPPSDEQLKSGTASVVCLLNNFYPREAKVQWKVDNALQSGNSQESVTEQDSKDSTYSLSSTLTLSKADYEKHKVYACEVTHQGLSSPVTKSFNRGEC
notes: homodimerized; also called Ho Ab E269_09D
Turning to B13, the Ho/Con_1a was 106 % of control.

B14: GpH7-B3 variant E269_14T/GpL16-k0 (antibody, human IgG1, kappa)
heavy: not shown
light: DIVMTQSPLSLPVTPGEPASISCQASESLVHSNRNTYLHWYLQKPGQSPQLLIYKVSNRFSGVPDRFSGSGSGTDFTLKISRVEAEDVGVYYCSQNTHVPPTFGQGTKVEIERTVAAPSVFIFPPSDEQLKSGTASVVCLLNNFYPREAKVQWKVDNALQSGNSQESVTEQDSKDSTYSLSSTLTLSKADYEKHKVYACEVTHQGLSSPVTKSFNRGEC
notes: homodimerized; also called Ho Ab E269_14T
As for B14, the Ho/Con_1a was 96.2 % of control.

B15: GpH7-B3 variant E269_08L/GpL16-k0 (antibody, human IgG1, kappa)
heavy: not shown
light: DIVMTQSPLSLPVTPGEPASISCQASESLVHSNRNTYLHWYLQKPGQSPQLLIYKVSNRFSGVPDRFSGSGSGTDFTLKISRVEAEDVGVYYCSQNTHVPPTFGQGTKVEIERTVAAPSVFIFPPSDEQLKSGTASVVCLLNNFYPREAKVQWKVDNALQSGNSQESVTEQDSKDSTYSLSSTLTLSKADYEKHKVYACEVTHQGLSSPVTKSFNRGEC
notes: homodimerized; also called Ho Ab E269_08L
As for B15, the Ho/Con_1a is 101 % of control.

B16: GpH7-B3 variant A330_05P/GpL16-k0 (antibody, human IgG1, kappa)
heavy: not shown
light: DIVMTQSPLSLPVTPGEPASISCQASESLVHSNRNTYLHWYLQKPGQSPQLLIYKVSNRFSGVPDRFSGSGSGTDFTLKISRVEAEDVGVYYCSQNTHVPPTFGQGTKVEIERTVAAPSVFIFPPSDEQLKSGTASVVCLLNNFYPREAKVQWKVDNALQSGNSQESVTEQDSKDSTYSLSSTLTLSKADYEKHKVYACEVTHQGLSSPVTKSFNRGEC
notes: homodimerized; also called Ho Ab A330_05P
B16: the Ho/Con_1a was 84.4 % of control.

B17: GpH7-B3 variant E269_02A/GpL16-k0 (antibody, human IgG1, kappa)
heavy: not shown
light: DIVMTQSPLSLPVTPGEPASISCQASESLVHSNRNTYLHWYLQKPGQSPQLLIYKVSNRFSGVPDRFSGSGSGTDFTLKISRVEAEDVGVYYCSQNTHVPPTFGQGTKVEIERTVAAPSVFIFPPSDEQLKSGTASVVCLLNNFYPREAKVQWKVDNALQSGNSQESVTEQDSKDSTYSLSSTLTLSKADYEKHKVYACEVTHQGLSSPVTKSFNRGEC
notes: homodimerized; also called Ho Ab E269_02A
Consider B17, for which the Ho/Con_1a was 96.2 % of control.

B18: GpH7-B3 variant E269_15Y/GpL16-k0 (antibody, human IgG1, kappa)
heavy: not shown
light: DIVMTQSPLSLPVTPGEPASISCQASESLVHSNRNTYLHWYLQKPGQSPQLLIYKVSNRFSGVPDRFSGSGSGTDFTLKISRVEAEDVGVYYCSQNTHVPPTFGQGTKVEIERTVAAPSVFIFPPSDEQLKSGTASVVCLLNNFYPREAKVQWKVDNALQSGNSQESVTEQDSKDSTYSLSSTLTLSKADYEKHKVYACEVTHQGLSSPVTKSFNRGEC
notes: homodimerized; also called Ho Ab E269_15Y
Regarding B18, the Ho/Con_1a is 100 % of control.

B19: GpH7-B3 variant A330_14T/GpL16-k0 (antibody, human IgG1, kappa)
heavy: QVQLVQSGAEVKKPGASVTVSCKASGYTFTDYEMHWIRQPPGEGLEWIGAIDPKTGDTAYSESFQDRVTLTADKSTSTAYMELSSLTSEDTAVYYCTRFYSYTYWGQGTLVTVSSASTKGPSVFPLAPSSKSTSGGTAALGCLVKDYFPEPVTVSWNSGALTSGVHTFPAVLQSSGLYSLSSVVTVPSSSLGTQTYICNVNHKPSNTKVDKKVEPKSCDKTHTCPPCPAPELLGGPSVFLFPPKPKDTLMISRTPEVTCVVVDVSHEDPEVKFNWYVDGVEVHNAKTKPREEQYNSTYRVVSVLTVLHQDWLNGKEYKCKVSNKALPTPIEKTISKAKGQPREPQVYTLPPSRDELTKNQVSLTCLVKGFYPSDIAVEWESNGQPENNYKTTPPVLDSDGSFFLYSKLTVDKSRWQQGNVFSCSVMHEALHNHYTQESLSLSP
light: DIVMTQSPLSLPVTPGEPASISCQASESLVHSNRNTYLHWYLQKPGQSPQLLIYKVSNRFSGVPDRFSGSGSGTDFTLKISRVEAEDVGVYYCSQNTHVPPTFGQGTKVEIERTVAAPSVFIFPPSDEQLKSGTASVVCLLNNFYPREAKVQWKVDNALQSGNSQESVTEQDSKDSTYSLSSTLTLSKADYEKHKVYACEVTHQGLSSPVTKSFNRGEC
notes: homodimerized; also called Ho Ab A330_14T
Regarding B19, the Ho/Con_1a is 105 % of control.

B20: GpH7-B3 variant E269_01G/GpL16-k0 (antibody, human IgG1, kappa)
heavy: not shown
light: DIVMTQSPLSLPVTPGEPASISCQASESLVHSNRNTYLHWYLQKPGQSPQLLIYKVSNRFSGVPDRFSGSGSGTDFTLKISRVEAEDVGVYYCSQNTHVPPTFGQGTKVEIERTVAAPSVFIFPPSDEQLKSGTASVVCLLNNFYPREAKVQWKVDNALQSGNSQESVTEQDSKDSTYSLSSTLTLSKADYEKHKVYACEVTHQGLSSPVTKSFNRGEC
notes: homodimerized; also called Ho Ab E269_01G
As to B20, the Ho/Con_1a was 97.4 % of control.

B21: GpH7-B3 variant A327_09D/GpL16-k0 (antibody, human IgG1, kappa)
heavy: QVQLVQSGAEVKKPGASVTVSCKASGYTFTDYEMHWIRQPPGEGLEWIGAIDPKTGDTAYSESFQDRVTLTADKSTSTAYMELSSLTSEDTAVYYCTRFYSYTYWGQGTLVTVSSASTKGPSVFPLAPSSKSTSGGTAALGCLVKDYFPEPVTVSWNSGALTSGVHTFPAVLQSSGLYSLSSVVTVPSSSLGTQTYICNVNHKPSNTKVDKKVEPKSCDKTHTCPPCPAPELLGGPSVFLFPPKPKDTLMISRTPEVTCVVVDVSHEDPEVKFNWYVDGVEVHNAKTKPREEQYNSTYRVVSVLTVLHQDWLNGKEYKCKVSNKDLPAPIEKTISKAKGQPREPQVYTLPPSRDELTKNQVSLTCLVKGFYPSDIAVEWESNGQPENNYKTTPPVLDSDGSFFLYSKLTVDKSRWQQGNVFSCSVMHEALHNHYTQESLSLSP
light: DIVMTQSPLSLPVTPGEPASISCQASESLVHSNRNTYLHWYLQKPGQSPQLLIYKVSNRFSGVPDRFSGSGSGTDFTLKISRVEAEDVGVYYCSQNTHVPPTFGQGTKVEIERTVAAPSVFIFPPSDEQLKSGTASVVCLLNNFYPREAKVQWKVDNALQSGNSQESVTEQDSKDSTYSLSSTLTLSKADYEKHKVYACEVTHQGLSSPVTKSFNRGEC
notes: homodimerized; also called Ho Ab A327_09D
In the case of B21, the Ho/Con_1a was 102 % of control.

B22: GpH7-B3 variant E269_13S/GpL16-k0 (antibody, human IgG1, kappa)
heavy: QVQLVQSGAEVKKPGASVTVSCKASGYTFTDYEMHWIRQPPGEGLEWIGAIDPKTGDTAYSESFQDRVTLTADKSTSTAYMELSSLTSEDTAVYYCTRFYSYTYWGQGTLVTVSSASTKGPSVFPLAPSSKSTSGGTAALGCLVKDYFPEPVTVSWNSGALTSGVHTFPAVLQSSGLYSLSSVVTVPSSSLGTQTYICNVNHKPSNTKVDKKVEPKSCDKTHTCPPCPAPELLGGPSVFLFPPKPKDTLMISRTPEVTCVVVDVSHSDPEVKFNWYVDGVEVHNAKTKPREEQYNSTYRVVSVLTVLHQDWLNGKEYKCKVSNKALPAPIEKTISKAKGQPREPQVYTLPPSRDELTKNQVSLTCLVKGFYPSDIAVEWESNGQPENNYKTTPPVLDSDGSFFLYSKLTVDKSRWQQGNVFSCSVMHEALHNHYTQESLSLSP
light: DIVMTQSPLSLPVTPGEPASISCQASESLVHSNRNTYLHWYLQKPGQSPQLLIYKVSNRFSGVPDRFSGSGSGTDFTLKISRVEAEDVGVYYCSQNTHVPPTFGQGTKVEIERTVAAPSVFIFPPSDEQLKSGTASVVCLLNNFYPREAKVQWKVDNALQSGNSQESVTEQDSKDSTYSLSSTLTLSKADYEKHKVYACEVTHQGLSSPVTKSFNRGEC
notes: homodimerized; also called Ho Ab E269_13S
In the case of B22, the Ho/Con_1a was 95.9 % of control.
